According to PMC3500560 (The Journal of neuroscience : the official journal of the …, 2011):

Tests used:
cross-linking = molecular target: the molecule itself; experiment: cross-linking
SEC-MALS = molecular target: the molecule itself; experiment: SEC-MALS

B1: His6-tagged SYD-2LH1 (domain or fragment)
chain: not shown
cross-linking
  stoichiometry N: 2

B2: MBP-LH1 fusion protein (domain or fragment)
chain: not shown
SEC-MALS
  stoichiometry N: 2
